From patent US20220340678A1 (MURAL ONCOLOGY, published 2022)
Changes are numbered by the printed parent chain. Names may count otherwise.

B1: Mouse cpIL-2:IL-2Ra (other)
chain: SSKSFQLEDAENFISNIRVTVVKLKGSDNTFECQFDDESATVVDFLRRWIAFCQSIISTSPQGGSSSTQQQQQHLEQLLMDLQELLSRMENYRNLKLPRMLTFKFYLPKQATELKDLQCLEDELGPLRHVLDLTQGSGGGSELCLYDPPEVPNATFKALSYKNGTILNCECKRGFRRLKELVYMRCLGNSWSSNCQCTSNSHDKSRKQVTAQLEHQKEQQTTTDMQKPTQSMHQENLTGHCREPPPWKHEDSKRIYHFVEGQSVHYECIPGYKALQRGPAISICKMKCGKTGWTQPQLTCVD
B2: Mouse uPA-ATF:Mouse cpIL-2:IL-2Ra:His6 (other)
chain: GSVLGAPDESNCGCQNGGVCVSYKYFSRIRRCSCPRKFQGEHCEIDASKTCYHGNGDSYRGKANTDTKGRPCLAWNAPAVLQKPYNAHRPDAISLGLGKHNYCRNPDNQKRPWCYVQIGLRQFVQECMVHDCGGSGGSKSFQLEDAENFISNIRVTVVKLKGSDNTFECQFDDESATVVDFLRRWIAFCQSIISTSPQGGSSSTQQQQQHLEQLLMDLQELLSRMENYRNLKLPRMLTFKFYLPKQATELKDLQCLEDELGPLRHVLDLTQGSGGGSELCLYDPPEVPNATFKALSYKNGTILNCECKRGFRRLKELVYMRCLGNSWSSNCQCTSNSHDKSRKQVTAQLEHQKEQQTTTDMQKPTQSMHQENLTGHCREPPPWKHEDSKRIYHFVEGQSVHYECIPGYKALQRGPAISICKMKCGKTGWTQPQLTCVDHHHHHH
B3: IL-12 p35 C74D variant (other)
chain: RNLPVATPDPGMFPCLHHSQNLLRAVSNMLQKARQTLEFYPCTSEEIDHEDITKDKTSTVEACLPLELTKNESDLNSRETSFITNGSCLASRKTSFMMALCLSSIYEDLKMYQVEFKTMNAKLLMDPKRQIFLDQNMLAVIDELMQALNFNSETVPQKSSLEEPDFYKTKIKLCILLHAFRIRAVTIDRVMSYLNAS
B4: IL-12 p35 C74K variant (other)
chain: B3 chain with D74K
B5: IL-12 p35 C74W variant (other)
chain: B3 chain with D74W
B6: IL-12 p35 C74Y variant (other)
chain: B3 chain with D74Y
B7: M1-Chimeric (antibody, V domains shown)
VH: EVQLQQSGAELVRPGASVKLSCTASGFNIKDEYINWVKQRPEQGLEWIGWIDPENGDTEYASKFQGKATITADTSSNTAYLQLSSLTSEDTAVYYCTGGNYVGWFPYWGQGTLVTVSA
VL: QIVLTQSPAIMSASPGEKVTMTCSASSSVSYMHWYQQKSGTSPKRWLYDTSKLASGVPARFSGSGSGTSYSLTISSMEAEDAATYYCQQWSSNPPYTFGGGTKLEIK
B8: M1-H3/L4 (antibody, V domains shown)
VH: EVQLQQSGAEVKKPGATVKLSCTASGFNIKDEYINWVKQRPGQGLEWIGWIDPENGDTEYASKFQGRATITADTSTDTAYLELSSLRSEDTAVYYCTGGNYVGWFPYWGQGTLVTVSS
VL: QIVLTQSPATLSASPGERVTMSCSASSSVSYMHWYQQKPGTSPRRWLYDTSKLASGVPARFSGSGSGTDYTLTISSLEPEDFATYYCQQWSSNPPYTFGQGTKLEIKT
notes: also called humanized M1
B9: M1-H1/L4 (antibody, V domains shown)
VH: B8 VH with Q5V, L20I, Q43K, A68V
VL: B8 VL
notes: also called humanized M1
B10: M1-H3/L1 (antibody, V domains shown)
VH: B8 VH
VL: B8 VL with Q1E, A13L, V19A, M21L, L47I, Y70F, T84V
notes: also called humanized M1
B11: M8-Chimeric (antibody, V domains shown)
VH: QIQLVQSGPELKKPGETVKISCKASGNTFTDYGMNWVKQSPGKGLKWMGWINTNTGEPTYADDFKGRFAFSLETSASTAYLQINNLKNEDMATYFCAHYSFDYWGQGTTLTVSS
VL: DIQMTQSPASLSVSVGQTVTITCRTSENIYSNLAWYQQKPGKSPQLLVYAATNLADGVPSRFSGSGSGTQYSLKINSLQSEDFGSYYCQHFWGTPWTFGGGTKLEIK
B12: M8-H3/L2B10 (antibody)
heavy: not shown
light: DIQMTQSPSSLSASVGDTVTITCRTSENIYSNLAWYQQKPGKSPQLLVYAATNLADGVPSRFSGSGSGTDYTLTISSLQPEDFGTYYCQHFWGTPWTFGGGTKVEIKTVAAPSVFIFPPSDEQLKSGTASVVCLLNNFYPREAKVQWKVDNALQSGNSQESVTEQDSKDSTYSLSSTLTLSKADYEKHKVYACEVTHQGLSSPVTKSFNRGEC
notes: also called humanized M8
B13: M8-H3/L2B2 (antibody, V domains shown)
VH: QIQLVQSGSELKKPGASVKISCKASGTTFTDYGMNWVKQSPGKGLKWMGWINTNTGEPTYAEDFKGRFVFSLDTSVSTAYLQISSLKAEDTATYFCAHYSFDYWGQGTLLTVSS
VL: DIQMTQSPSSLSASVGDTVTITCRTSENIYSNLAWYQQKPGKSPQLLVYAATNLADGVPSRFSGSGSGTQYTLKISSLQPEDFATYYCQHFWGTPWTFGGGTKVEIKT
notes: also called humanized M8
B14: M8-H3/L2B5 (antibody)
heavy: not shown
light: B12 light with T18R
notes: also called humanized M8
B15: M43-Chimeric (antibody, V domains shown)
VH: QVQLQQSGAELARPGASVNLSCKASGYTFTSYGISWVKQRTGQGLEWIGEIYPRSGNTYYNEKFKGKATLTADKSSRTAYMELRSLTSEDSAVYFCAGKDYGSTYADYWGQGTTLTVSS
VL: QIVLTQSPAIMSASPGEKVTMTCSASSSVSSRYLHWYQQKSGASPKLWIYGTSNLASGVPARFSGSGSGTSYSLTINSVEAEDAATYYCQQYHSDPLTFGAGTKLELK
B16: M43-H1bm5/L4 (antibody, V domains shown)
VH: B15 VH with Q5V, L11V, R13K, S21N, K38R, A68V, A72T, S76T, S91T, F95Y
VL: QIVLTQSPATLSASPGERVTMTCSASSSVSSRYLHWYQQKSGASPRLWIYGTSNLASGVPARFSGSGPGTSYTLTISSVEPEDAATYYCQQYHSDPLTFGQGTKLELKT
notes: also called humanized M43
B17: M43-H4bm5/L4 (antibody, V domains shown)
VH: B15 VH with L11V, R13K, S21N, K38R, S76T, S91T
VL: B16 VL
notes: also called humanized M43

Target: IL-2/IL-15 receptor on primary mouse splenocytes (mouse)
Assay: cell-based or functional assay

| Binder | pSTAT5 EC50, mouse NK cells [nM] | pSTAT5 EC50, mouse Tregs [nM] | pSTAT5 EC50, mouse memory CD8 T cells [nM] |
| --- | --- | --- | --- |
| B1 | 19 | 22 | 23 |
| B2 | 35 | 22 | 38 |

Target: T1, IL-12 p40 C177S variant (human, UniProt P29460 23-328)
T1 sequence: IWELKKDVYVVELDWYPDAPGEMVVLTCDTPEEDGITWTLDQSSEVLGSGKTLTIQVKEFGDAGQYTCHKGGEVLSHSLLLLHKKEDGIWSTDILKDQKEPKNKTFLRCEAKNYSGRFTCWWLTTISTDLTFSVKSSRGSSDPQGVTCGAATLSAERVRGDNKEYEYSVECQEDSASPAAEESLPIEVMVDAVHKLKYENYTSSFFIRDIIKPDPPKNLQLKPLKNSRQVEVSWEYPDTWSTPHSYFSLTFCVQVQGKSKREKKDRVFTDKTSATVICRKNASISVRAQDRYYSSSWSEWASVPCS
Assay: BLI (Octet), p35 C74 variant against p40 C177S

| Binder | Kd [nM] | koff [s⁻¹] | kon [M⁻¹ s⁻¹] |
| --- | --- | --- | --- |
| B3 | 57.1 | 0.001 | 17600 |
| B4 | 19.6 | 0.000508 | 25900 |
| B5 | 27 | 0.000432 | 16000 |
| B6 | 23.2 | 0.000411 | 17700 |

Target: T2, IL-12 p40 C177F variant (human, UniProt P29460 23-328)
T2 sequence: T1 sequence with S177F
Assay: BLI (Octet), p35 C74 variant against p40 C177F

| Binder | Kd [nM] | koff [s⁻¹] | kon [M⁻¹ s⁻¹] |
| --- | --- | --- | --- |
| B3 | 60.2 | 0.000719 | 11900 |
| B4 | 18.4 | 0.000295 | 16000 |
| B5 | 25.4 | 0.000291 | 11500 |
| B6 | 23.8 | 0.000298 | 12500 |

Target: T3, histidine-tagged human uPAR (Sino#10925-H08H) (human, UniProt Q03405 23-303)
T3 construct: also called uPAR-His
Assay: BLI (Octet), antibody on anti-human Fc sensor, uPAR from 50 nM;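 also: antibodies captured at 10 µg/mL on anti-human Fc biosensors, with uPAR as analyte in a twofold dilution series from 50 nM downward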

| Binder | Kd [nM] | koff [s⁻¹] | kon [M⁻¹ s⁻¹] |
| --- | --- | --- | --- |
| B7 | 1.11 | 0.000701 | 629000 |
| B8 | 1.3 | 0.000893 | 686000 |
| B9 | 1.48 | 0.000986 | 665000 |
| B10 | 1.64 | 0.00111 | 677000 |
| B11 | 1.79 | 0.00049 | 273000 |
| B12 | 2.35 | 0.000477 | 203000 |
| B13 | 1.74 | 0.000427 | 246000 |
| B14 | 1.65 | 0.000351 | 213000 |
| B15 | 15.1 | 0.00606 | 402000 |
| B16 | 15.9 | 0.00658 | 415000 |
| B17 | 14.7 | 0.00666 | 454000 |

Target: T4, Recombinant mouse uPAR-Fc (R&D Systems, Cat. No. 531-PA-100) (mouse, UniProt P35456 24-297, limits assumed)
T4 construct: not shown: Fc of the bought fusion (captured with the human antibody capture kit); not described
T4 sequence (looked up): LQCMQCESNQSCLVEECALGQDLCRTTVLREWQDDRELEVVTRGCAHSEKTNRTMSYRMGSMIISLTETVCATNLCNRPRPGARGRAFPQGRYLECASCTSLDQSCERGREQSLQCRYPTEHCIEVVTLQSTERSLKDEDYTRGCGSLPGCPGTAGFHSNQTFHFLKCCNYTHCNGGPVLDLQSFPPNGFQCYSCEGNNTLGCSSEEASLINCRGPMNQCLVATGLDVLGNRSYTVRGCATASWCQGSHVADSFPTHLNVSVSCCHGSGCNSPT
Assay: SPR (Biacore), mouse uPAR-Fc captured on anti-human antibody chip

| Binder | Kd [nM] | koff [s⁻¹] | kon [M⁻¹ s⁻¹] |
| --- | --- | --- | --- |
| B2 | 0.14 | 0.0002 | 1.4e+06 |
